Data taken from US20230348578A1, “CONFORMATION-SPECIFIC ANTIBODIES THAT BIND TAU PROTEIN AND USES THEREOF” (Beth Israel Deaconess Medical Center, Inc., priority 2020, published 2023).

How the values were obtained:
[1] = target: cis pT231-tau (P-tau peptide, pure cis or cis-locked); assay: Biacore assay of binding affinity of humanized cis mAb variants
Excerpt: We next started to characterize and select lead humanized mAbs. We expressed and purified humanized mAb variants using a CHO expression system. We transfected over 45 plasmid DNA pairs of heavy and light chain cDNAs into CHO cells to express over 225 humanized cis mAb variants in various combinations. To evaluate the target binding specificity and affinity of our mouse mAbs, we established a simple and quantitative ELISA to screen the clones using a wild-type P-tau peptide and its pure cis or cis-locked, and pure trans counterparts and determined the binding affinity for selected clones using Biacore assays. We screened over 200 humanized cis mAb variants. […] Furthermore, one-tenth of humanized cis mAb variants were also able to recognize cis P-tau in human AD and TBI brains based on immunostaining analysis.
(§1) The binding affinity of selected humanized antibody clones was determined by Biacore assay using a wild-type P-tau peptide and its pure cis or cis-locked, and pure trans counterparts. The […] of the selected humanized cis mAb variants was determined by assessing their ability to eliminate cis P-tau in stressed neurons in cell cultures. Functional restoration of selected clones was determined by their ability to restore risk-taking behavior after 3-hit or 7-hit repetitive TBI in mice, as assayed by elevated plus maze.

[2] = tested on: mice (C57/BL6) after 3-hit repetitive TBI; assay: 3-hit repetitive mild TBI in mice, elevated plus maze; assay type: in vivo; conditions: risk-taking behavior, HT13 chimera control = 1.0
Method: as §1
(§2) An initial sign of brain dysfunction following traumatic brain injury (TBI) is an increase in risk-taking behavior. To determine the therapeutic effect of the herein described cis pT231-tau monoclonal antibodies in restoring brain function 11-week old mice (C57/BL6) mice were subjected to elevated plus maze behavioral assays designed to evaluate risk-taking behavior following repetitive mild TBIs. The behavioral assays were performed as previously described in Walf, Nature Protocols 2(2): 322-328, 2007 (FIG. 7). […] All other mice sustained mild TBI (rmTB) either three times, once a day for three consecutive days, or seven times once a day for five consecutive days and two consecutive times on days 8 and 9. In the 3-hit TBI experiment (FIG. 8A), nine groups of mice received three doses (250 ug/mouse) via intraperitoneal injection of either IgG control (n=10 mice) or one of the following humanized cis pT231-tau monoclonal antibody variants C113 (n=5 mice), HT1 (n=10 mice), HT2 (n=10), HT3 (n=10), HT8 (n=5), HT10 (n=10), HT13 (n=15), HT18 (n=4). Treatment with IgG or humanized cis-pT231-tau monoclonal antibody was administered on Days 1, 2 and 7. Behavioral evaluation was performed on Day 13. In the 7-hit TBI experiment (FIG. 8B), one group sustained TBI only (n=10 mice). The other groups received 8 doses (250 ug/mouse) via intraperitoneal injection of either IgG control (n=10 mice) or one of the following humanized cis pT231-tau monoclonal antibody variants C113 (n=10 mice), HT2 (n=10), HT3 (n=10), HT8 (n=10), HT10 (n=10), HT13 (n=10), HT18/HC2 (n=10). Treatment with IgG or humanized cis-pT231-tau monoclonal antibody was administered on Days 1, 2, 3, 5, 8, 10, 13 and 20. Behavioral evaluation was performed on Day 27. The elevated plus maze was used to assess anxiety/risk-taking behavior and carried out as described in Kondo et al, Nature 523, 431-436, 2015. Briefly, the elevated plus maze consists of two white open arms (30×5 cm) and two white closed arms of the same size with 15-cm-high walls, extended out opposite from each other from a central platform (decision zone) to create a plus shape. The entire apparatus is raised 38 cm above the floor (Lafayette Instruments). Mice are placed on the center platform of the maze, facing a closed arm, and allowed to explore the apparatus for 5 min. The maze is cleaned between subjects with a weak ethanol solution and dried. A computer-assisted video tracking system (Noldus Ethovision) recorded the total time spent in the center platform (decision zone), and the two closed or ‘safe’ arms and the two open or ‘aversive’ arms. Mice with lower levels of anxiety/risk-taking behavior spend less time in the open arms.

[3] = tested on: mice (C57/BL6) after 7-hit repetitive TBI; assay: 7-hit repetitive mild TBI in mice, elevated plus maze; assay type: in vivo; conditions: risk-taking behavior, HT13 chimera control = 1.0
Method: as §1, §2

[4] = tested on: BCAS (bilateral common carotid artery stenosis) mice; assay: 3 month treatment of BCAS mice with humanized cis mAbs (Y maze, NOR, Barnes maze); assay type: in vivo
Method: BCAS mice were treated with novel humanized cis mAbs (HT10 and HT18), murine cis mAb C113 (as described in, e.g., U.S. Pat. No. 9,688,747, positive control), mouse-human chimeric HT13 (positive control), or IgG (negative control). Behavioral changes were assay by Y-maze and novel object recognition (NOR) at 1 month after BCAS (FIG. 92A); by Y-maze and NOR at 3 months after BCAS (FIG. 92B); and by Barnes maze at 3 months after BCAS (FIG. 92C). *, p<0.05; **, p<0.01; ***, p<0.001; ****, p<0.0001.
As described above in Examples 1-4, we developed 225 humanized cis P-tau mAb variants and identified 10 top fully humanized cis mAb variants (HT1-4, HT6-10 and HT18) with the expected specificity and potency. […] In this experiment, we performed a 3 month treatment of BCAS (bilateral common carotid artery stenosis) mice with two humanized cis mAb variants, HT10 and HT18, along with murine cis mAb C113 (as described in, e.g., U.S. Pat. No. 9,688,747) and mouse-human chimeric HT13 as positive controls.

cis P-tau [5] = target: T1, cis P-tau (Homo sapiens, UniProt P10636); assay: Elimination of cis P-tau in cultured neurons stressed by hypoxia; assay type: cell-based; parameters: endogenous in cells; conditions: 2.5 μg/ml, 5 μg/ml and 10 μg/ml
Method: as §1
Cultured neurons were subjected to neuron stress by hypoxia in the presence or absence of different concentration of humanized antibody variants, followed by immunoblotting analysis to analyze cis P-tau levels in the stressed neurons, the results of which are provided in FIGS. 2-4. FIG. 2 is an immunostaining image showing the ability of humanized cis pT231-tau monoclonal antibody variants to eliminate cis P-tau in neurons under hypoxic conditions. Cis P-tau levels are reported in red and blue reports nuclear staining (Hoechst) to represent all neurons in the experiment. […] Cis P-tau levels are reported in red and blue reports nuclear staining (Hoechst) to represent all neurons in the experiment. […] IgG is a negative control. The cis-pTau monoclonal antibody C113 serves as a positive control.

cis P-tau [6] = target: T1, cis P-tau; assay: Immunoblotting of CSF of live TBI patients; assay type: binding; parameters: The recognition of cis P-tau in the CSF of live TBI patients; from tissue; host or cells: cerebrospinal fluid of live traumatic brain injury patients; conditions: relative to control CSF samples
Excerpt: CSF pT231-tau is an early biomarker of traumatic brain injury (TBI). The recognition of cis P-tau in the CSF of live TBI patients by the humanized cis pT231-tau monoclonal antibody variants evaluated immunoblotting analyses using different humanized antibody variants.

[7] = 3 months after BCAS surgery, Barnes maze

T1 sequence (P10636 1-441 isoform P10636-8): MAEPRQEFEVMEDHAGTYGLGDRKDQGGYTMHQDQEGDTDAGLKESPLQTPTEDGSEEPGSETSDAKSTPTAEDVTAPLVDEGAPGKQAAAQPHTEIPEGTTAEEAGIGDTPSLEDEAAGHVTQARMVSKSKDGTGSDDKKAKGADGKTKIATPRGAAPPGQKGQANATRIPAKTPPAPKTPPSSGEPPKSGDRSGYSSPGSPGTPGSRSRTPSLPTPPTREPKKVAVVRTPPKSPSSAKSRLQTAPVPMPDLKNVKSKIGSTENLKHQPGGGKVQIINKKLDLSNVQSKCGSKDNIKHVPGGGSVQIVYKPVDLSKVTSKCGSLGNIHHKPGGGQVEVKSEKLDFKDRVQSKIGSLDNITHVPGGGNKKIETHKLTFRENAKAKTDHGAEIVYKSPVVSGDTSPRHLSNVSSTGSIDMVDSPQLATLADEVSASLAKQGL

Kd [1] | elimination of cis P-tau in neurons under hypoxic conditions (images) (cis P-tau [5]) | rank in cis P-tau elimination assay (FIG. 4) (cis P-tau [5]) | Molecule | Functional restoration 3-hit TBI [2] | Functional restoration 7-hit TBI [3] | VCID-like behavioral changes ([4]; 1 month after BCAS surgery) | VCID-like behavioral changes [4, 7] | detection of cis P-tau in CSF of live TBI patients (cis P-tau [6])
1.77 nM | elimination of cis P-tau | top four performing variants | HT10: humanized cis-pThr231-tau mAb; heavy chain variable domain SEQ ID NO: 26, light chain variable domain SEQ ID NO: 19 (antibody, V domains shown) VH: QVQLVQSGAEVKKPGASVKMSCKASGYTFTSYWIHWVKQRPGQGLEWIGVIDPSDSYTRYNQKFKGRATLTVDTSASTAYMELSSLRSEDTAVYYCTTWEVDYWGQGTLVTVSS VL: DVVMTQSPLSLPVTLGQPASISCRSSQSLVHSDGNTYLHWYLQKPGQSPQLLIYKVSNRFSGVPDRFSGSGSGTDFTLKISRVEAEDVGVYYCSQSTHVPWTFGGGTKVEIK | 1.2 | 1.3 | effective in preventing VCID-like behavioral changes | effective in preventing VCID-like behavioral changes | robust detection of cis P-tau as early as three days after TBI
1.91 nM | elimination of cis P-tau | top four performing variants | HT18: humanized cis-pThr231-tau mAb; heavy chain variable domain SEQ ID NO: 29, light chain variable domain SEQ ID NO: 20 (antibody, V domains shown) VH: QVQLVQSGAEVKKPGSSVKVSCKASGYTFTSYWIHWVRQAPGQGLEWMGVIDPSDSYTRYNQKFKGRVTITRDTSMSTAYTELSSLRSEDTAVYYCTTWEVDYWGQGTLVTVSS VL: DIQMTQSPSTLSASVGDRVTITCRSSQSLVHSDGNTYLHWYQQKPGKAPKLLIYKVSNRFSGVPSRFSGSGSGTEFTLTISSLQPDDFATYYCSQSTHVPWTFGQGTKLEIK | 1.0 | 1.1 | effective in preventing VCID-like behavioral changes | effective in preventing VCID-like behavioral changes | robust detection of cis P-tau as early as three days after TBI
